Legend:
[1] = target: T1, human PDL1 expressed on cells (human, UniProt Q9NZQ7 19-290); test: flow cytometry on CHO-PDL1 cells; scFv detected by APC labelled protein-L
T1 construct: also called CHO-PDL1 expressing cells

[2] = target: T1, human PDL1 expressed on cells; test: cell-based or functional assay
[3] = target: T2, human PDL1 (recombinant, soluble) (human, UniProt Q9NZQ7 19-238); test: PDL1/B7-1 competition ELISA; B7-1 coated, biotinylated PDL1 40 ng/ml
T2 construct: also called hPDL1; hPD-L1
Protocol: (§1) ELISA microplates coated overnight at 4° C. with 4 μg/ml human B7-1 were washed three times with 450 μl wash buffer per well. Plates were blocked for 1 hour at room temperature by adding 300 μl of PBS with 1% BSA and 0.2% tween (dilution buffer) to each well. […] The mixtures were pre-incubated for 1 hour at room temperature under gentle agitation on a rotating mixer (21 rpm) and added to the microplates after 3 wash cycles with 450 μl wash buffer per well. Plates were incubated for 1.5 hours at room temperature under gentle agitation, then 10 ng/ml streptavidin-polyHRP40 was added to each microplate well after three washes with 450 μl of wash buffer per well. After 1 h incubation at RT, plates were washed three times with 450 μl wash buffer and TMB substrate solution was added. The enzymatic reaction was stopped after 6 minutes by addition of 1 M HCl and absorbance was measured at 450 nm using 690 nm as a reference wavelength. For calculation of IC₅₀ values, a four-parameter logistic (4PL) curve fit was performed in Graph Pad Prism using reference subtracted values.

[4] = target: T1, human PDL1 expressed on cells; test: cell-based or functional assay; remark: listed apart in the source
[5] = target: cynomolgus PDL1, recombinant (Sino Biological) / PDL1-Fc chimeric protein (cynomolgus (Macaca fascicularis), UniProt G7PSE7 19-238); test: SPR Biacore T200; cynomolgus PDL1 (Sino Biological) captured; scFv as analyte
Protocol: (§2) After each analyte injection cycle, the CM5 sensor chip was regenerated and new antigen was captured. The scFvs were injected as analyte using a dose response multicycle kinetic assay with concentrations of the analyte ranging from 0.12 to 30 nM diluted in running buffer for 5 min and dissociation of the protein was allowed to proceed for 12 min. Obtained sensorgrams were fitted using the 1:1 binding model.

[6] = target: T2, human PDL1 (recombinant, soluble); test: PDL1/PD-1 competition ELISA; PD-1 coated; scFv
Protocol: (§3) ELISA plates were coated by adding 50 μl of PBS containing 4 μg/ml PD-1 overnight at 4° C. Next day, plates were washed three times in overflow mode with 450 μl wash buffer (PBS, 0.005% Tween 20) per wells and 300 μl of blocking buffer (PBS, 1% BSA, 0.2% Tween 20) were added to each well for 1 h at RT on a nutating mixer. […] ELISA pates were washed 3 times in overflow mode with 450 μl wash buffer and two times 50 μl of each dilution was added in adjacent wells of the ELISA plates in order to generate duplicates. Plates were incubated 90 minutes at RT under gentle agitation. After three washes with 450 μl of washing buffer, 50 μl of 10 ng/ml streptavidin-polyHRP40 were added to each wells of the ELISA plates. After 1 h incubation at RT, plates were washed three times with 450 μl wash buffer and developed for 5 to 10 minutes after addition of 50 μl TMB. Finally, the enzymatic reaction was stopped by addition of 50 μl of 1 M HCl and plate was read at 450 nm using 690 nm as a reference wavelength.

Fc tagged human PDL1 = target: T3, Fc tagged human PDL1 (human, UniProt Q9NZQ7 19-238); test: SPR Biacore T200; Fc tagged PDL1 captured; scFv 0.12-30 nM
T3 construct: also called PDL1-Fc chimeric protein (human); not shown: Fc tag
Protocol: as §2

[7] = target: T2, human PDL1 (recombinant, soluble); test: PDL1/B7-1 competition ELISA; B7-1 coated; scFv
Protocol: as §3, with “μg/ml B7-1” for “μg/ml PD-1”, “of” for “of 10 ng/ml”, “streptavidin-polyHRP40 was” for “streptavidin-polyHRP40 were”, “ELISA plate.” for “ELISA plates.”

[8] = target: T2, human PDL1 (recombinant, soluble); test: PDL1/PD-1 competition ELISA; PD-1 coated, biotinylated PDL1 1 ng/ml
Protocol: as §1, with “PD-1” for “B7-1”

[9] = target: T2, human PDL1 (recombinant, soluble); test: PD-1/PDL1 competition ELISA in the presence of 1 mg/ml human serum albumin: biotinylated human PDL1 pre-incubated with the inhibitor, then binding to plate-coated human PD-1; blocked ligand PD-1
Protocol: as §1, with “PD-1” for “B7-1”

[10] = target: T2, human PDL1 (recombinant, soluble); test: PDL1/PD-1 competition ELISA with human serum albumin
Protocol: as §1, with “PD-1” for “B7-1”

cynomolgus PDL1, recombinant (Sino Biological) / PDL1-Fc chimeric protein, sequence (G7PSE7 entry or part of it mutant limits assumed): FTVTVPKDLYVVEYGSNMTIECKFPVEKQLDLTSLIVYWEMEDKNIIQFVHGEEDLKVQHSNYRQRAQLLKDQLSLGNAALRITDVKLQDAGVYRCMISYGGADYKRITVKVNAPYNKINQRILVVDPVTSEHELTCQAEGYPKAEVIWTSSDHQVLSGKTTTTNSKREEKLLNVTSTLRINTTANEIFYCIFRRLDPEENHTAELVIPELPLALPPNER

B1: PRO830 (33-03-G02-sc01 scFv) (scFv)
scFv: DIQMTQSPSSLSASVGDRVTITCQASQSINDYLAWYQQKPGKAPKLLIYKASTLASGVPSRFSGSGSGTDFTLTISSLQPEDFATYYCQQGYIITDIDNVFGTGTKVTVLGGGGGSGGGGSGGGGSGGGGSQVQLQESGPGLVKPSETLSLTCKVSGFSFSSGYDMCWIRQPPGKGLEWIGCVVAGSVDITYYASWAKGRVTISVDSSKNQFSLKLSSVTAADTAVYYCARKDAYSDAFNLWGQGTLVTVSS
notes: also called 33-03-G02 CDR
For B1, the EC50 [1] was 0.0202 µg/mL, the “reporter gene assay IC50” value [2] was 0.0375 µg/mL and the “reporter gene assay Maximum Inhibition (%)” value [2] was 105%. The IC50 [3] was 0.0129 µg/mL, the “NF-AT potency assay IC50” value [4] was 0.0429 µg/mL and the “KD, cyno/KD, human” value [5] was 0.97. The Kd [5] was 0.074 nM, the koff [5] was 0.000182 s⁻¹ and the kon [5] was 2.46e+06 M⁻¹ s⁻¹. The IC50 [6] was 0.00345 µg/mL, the “Maximum Inhibition (%)” value [6] was 99.8% and the koff (Fc tagged human PDL1) was 0.000159 s⁻¹. For the same binder, the IC50 [7] was 0.00611 µg/mL, the “Maximum Inhibition (%)” value [7] was 94.5% and the IC50 [8] was 0.0034 µg/mL.

B2: PRO1057 (38_02_A04 sc01 scDb-i/33-03-G02 sc01 scDb-o/mxr HSA (23-13-A01-sc03, sk17sh4)) (other)
chain: DIQMTQSPSSLSASVGDRVTITCQASQSINDYLAWYQQKPGKAPKLLIYKASTLASGVPSRFSGSGSGTDFTLTISSLQPEDFATYYCQQGYIITDIDNVFGTGTKVTVLGGGGGSQVQLQESGPGLVKPSETLSLTCKVSGFSFSNSYWICWIRQPPGKGLEWIGCTFVGSSDSTYYANWAKGRVTISVDSSKNQFSLKLSSVTAADTAVYYCARHPSDAVYGYANNLWGQGTLVTVSSGGGGSGGGGSGGGGSGGGGSIQMTQSPSSLSASVGDRVTITCQASQSINNVLAWYQQKPGKAPKLLIYRASTLASGVPSRFSGSGSGTDFTLTISSLQPEDFATYYCQSSYGNYGDFGTGTKVTVLGGGGGSQVQLQESGPGLVKPSETLSLTCKVSGFSFSSGYDMCWIRQPPGKGLEWIGCVVAGSVDITYYASWAKGRVTISVDSSKNQFSLKLSSVTAADTAVYYCARKDAYSDAFNLWGQGTLVTVSSGGGGSGGGGSVVMTQSPSSLSASVGDRVTITCQASQIISSRSAWYQQKPGQPPKLLIYQASKLASGVPSRFSGSGSGTDFTLTISSLQPEDFATYYCQCTYIDSNFGAFGGGTKLTVLGGGGGSGGGGSGGGGSGGGGSEVQLVESGGGLVQPGGSLRLSCAASGFSFSSSYWICWVRQAPGKGLEWVGCVFTGDGTTYYASWAKGRFTISRDNSKNTVYLQMNSLRAEDTATYFCARPVSVYYYGMDLWGQGTLVTVSS
With B2 the IC50 [3] was 0.0163 µg/mL, the “IC50 (read off the curve)” value [9] was about 0.02 µg/mL and the “NF-AT potency assay IC50 (with HSA)” value [4] was 0.665 µg/mL. The IC50 [8] was 0.00861 µg/mL and the “fold higher IC50 in presence of human serum albumin” value [10] was about 2 fold.

Reference: US20200283528A1 (NUMAB THERAPEUTICS, published 2020)
